Data: US20230265151A1, “GIP/GLP1 CO-AGONIST COMPOUNDS” (priority 2020, published 2023)
*1 amine or outer side, *2 acyl side, *3 side chain or, on linkers, in order; H or OH if unused. Where no end group is shown, it is not given here. Side-chain parts run from the residue outwards. [ ]: non-standard residue; d: D form. The star is where a group is joined. Decanoyl(10-(4-HOOC-PhO)) = O=C(O)c1ccc(OCCCCCCCCCC(=O)*)cc1; αMePhe(2-F) = C[C@](N)(Cc1ccccc1F)C(=O)O; γGlu = O=C(O)[C@H](CCC(=O)[*:2])N[*:1]; αMeY = C[C@](N)(Cc1ccc(O)cc1)C(=O)O; αMeL = CC(C)C[C@](C)(N)C(=O)O; Nle = CCCC[C@H](N)C(=O)O; Orn = NCCC[C@H](N)C(=O)O; AEEA = NCCOCCOCC(=O)O; Aib = CC(C)(N)C(=O)O

Experiments:
Test in all cases: cell-based or functional assay
human glucagon receptor = human glucagon receptor (human, UniProt P47871 26-477)
human GIP receptor = target: T1, human GIP receptor (human, UniProt P48546 22-466)
T1 sequence (looked up): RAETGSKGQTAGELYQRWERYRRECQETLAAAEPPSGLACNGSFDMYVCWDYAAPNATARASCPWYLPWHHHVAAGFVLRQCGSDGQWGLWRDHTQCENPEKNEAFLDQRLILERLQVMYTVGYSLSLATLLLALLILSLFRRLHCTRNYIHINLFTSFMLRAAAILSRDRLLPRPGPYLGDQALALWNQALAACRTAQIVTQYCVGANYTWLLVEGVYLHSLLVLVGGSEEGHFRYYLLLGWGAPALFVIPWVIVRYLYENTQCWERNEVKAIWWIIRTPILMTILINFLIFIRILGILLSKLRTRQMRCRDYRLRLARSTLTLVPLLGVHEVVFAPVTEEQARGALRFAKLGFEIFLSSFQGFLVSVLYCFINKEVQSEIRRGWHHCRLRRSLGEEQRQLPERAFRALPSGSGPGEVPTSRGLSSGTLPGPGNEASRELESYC

human GLP-1 receptor = human GLP-1 receptor (human, UniProt P43220 24-463)

B1: Example 335 (peptide)
peptide: YXEGTXTSDXSIXLDXKAQXEFIXXLIKGGPSSGAPPPS
modifications: Aib2, αMeF(2F)6, hTyr10, αMeL13, Orn16, Aib20, D-Glu24, αMeY25; K17 and K28: AEEA2-(γ-Glu)-CO-(CH2)10-CH3; C-terminal NH2
- cAMP EC50 (human glucagon receptor): > 9950 nM
- cAMP EC50 (human GIP receptor): 0.00871 nM
- cAMP EC50 (human GLP-1 receptor): 0.175 nM

B2: Example 333 (peptide)
peptide: Y[Aib]EGT[αMePhe(2-F)]TSD[Nle]SI[αMeL]LD[Orn]IAQ[Aib]K([AEEA-AEEA-γGlu-Decanoyl(10-(4-HOOC-PhO))])FI[dE][αMeY]LIK([AEEA-AEEA-γGlu-Decanoyl(10-(4-HOOC-PhO))])GGPSSGAPPPS-NH2
modifications: N-terminus assumed
SMILES: CCCC[C@H](NC(=O)[C@H](CC(=O)O)NC(=O)[C@H](CO)NC(=O)[C@@H](NC(=O)[C@](C)(Cc1ccccc1F)NC(=O)[C@@H](NC(=O)CNC(=O)[C@H](CCC(=O)O)NC(=O)C(C)(C)NC(=O)[C@@H](N)Cc1ccc(O)cc1)[C@@H](C)O)[C@@H](C)O)C(=O)N[C@@H](CO)C(=O)N[C@H](C(=O)N[C@@](C)(CC(C)C)C(=O)N[C@@H](CC(C)C)C(=O)N[C@@H](CC(=O)O)C(=O)N[C@@H](CCCN)C(=O)N[C@H](C(=O)N[C@@H](C)C(=O)N[C@@H](CCC(N)=O)C(=O)NC(C)(C)C(=O)N[C@@H](CCCCNC(=O)COCCOCCNC(=O)COCCOCCNC(=O)CC[C@H](NC(=O)CCCCCCCCCOc1ccc(C(=O)O)cc1)C(=O)O)C(=O)N[C@@H](Cc1ccccc1)C(=O)N[C@H](C(=O)N[C@H](CCC(=O)O)C(=O)N[C@@](C)(Cc1ccc(O)cc1)C(=O)N[C@@H](CC(C)C)C(=O)N[C@H](C(=O)N[C@@H](CCCCNC(=O)COCCOCCNC(=O)COCCOCCNC(=O)CC[C@H](NC(=O)CCCCCCCCCOc1ccc(C(=O)O)cc1)C(=O)O)C(=O)NCC(=O)NCC(=O)N1CCC[C@H]1C(=O)N[C@@H](CO)C(=O)N[C@@H](CO)C(=O)NCC(=O)N[C@@H](C)C(=O)N1CCC[C@H]1C(=O)N1CCC[C@H]1C(=O)N1CCC[C@H]1C(=O)N[C@@H](CO)C(N)=O)[C@@H](C)CC)[C@@H](C)CC)[C@@H](C)CC)[C@@H](C)CC
- cAMP EC50 (human glucagon receptor): > 9950 nM
- cAMP EC50 (human GIP receptor): 0.0062 nM
- cAMP EC50 (human GLP-1 receptor): 0.388 nM
